Experiment [1] has as its target T1, AFP158/HLA-A*02:01 complex (human).
T1 construct: flowed over the chip in SPR; also called AFP158 pro
The experiment is described as follows: SPR, KD ratio to AS170036 VL1VH1. Background: SPR reads the build-up and loss of mass on a sensor chip optically.
Protocol: The experiment was carried out as follows. The crude scFv protein were captured onto the sensorchip. Different concentrations (320, 160, 40 nM) of AFP158/HLA-A*02:01 complex flowed over the sensorchip surface, and were allowed to bind the antibody fragment for 100 s followed by injection of the running buffer to allow dissociation of the complex. On-rate (kd) and off-rate (kd) were calculated based on association and dissociation curve, and were used to estimate the equilibrium dissociation constant (KD).

The target in experiment [2] is T1, AFP158/HLA-A*02:01 complex. Kind of experiment: SPR, scFv captured, pMHC in flow.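 Also: complex injected at several concentrations over crude scFv, association then running-buffer dissociation, KD estimated from kinetic on- and off-rate constants.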
In experiment [3] the target is T1, AFP158/HLA-A*02:01 complex. Kind of experiment: SPR, KD ratio to AS170036 VL1VH1.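 Also: crude scFv captured on a sensor chip, peptide–HLA complex passed over at several concentrations, association then buffer dissociation, KD derived from on- and off-rates.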 The source holds these as a separate data set.
The target in experiment [4] is T1, AFP158/HLA-A*02:01 complex. Kind of experiment: SPR, scFv captured, pMHC in flow.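 Also: complex injected at several concentrations over crude scFv, association then running-buffer dissociation, KD estimated from kinetic on- and off-rate constants.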 The source holds these as a separate data set.

The Kd is the free concentration of one partner at which half of the binding sites on the other are occupied at equilibrium, for simple one-to-one binding. A higher Kd goes with weaker binding.

Like-named read-outs stand apart in the source and are kept apart here.

B1: LH98P (scFv)
scFv: QSALTQPRSVSGSPGQSVTISCAGTSSDVGSENYVSWYQQHPGKAPKLMIYQVNKRASGVPDRFSGSKSGNTASLTISGLQAEDEADYYCASYRSSDPNIVFGGGTKLTVLGGGGSGGGGSGGGGSEVQLVESGGGLVQPGGSLRLSCAASGFTFSSYAMSWVRQAPGKGLEWVSTINSGTGSPYYADSVKGRFTISRDNSKNTLYLQMNSLRAEDTAVYYCAKNFFDGSWFLGPPAMDYWGQGTLVTVSSHHHHHH
notes: AS170036 VL1VH1 scFv mutein; also called AS170036 VL1VH1-VLH98P
Regarding B1, the Affinity increase in experiment [1] and in experiment [3] was 3.5 fold each time. The Kd in experiment [2] and in experiment [4] was 70 nM each time.

B2: LH98Q (scFv)
scFv: QSALTQPRSVSGSPGQSVTISCAGTSSDVGSENYVSWYQQHPGKAPKLMIYQVNKRASGVPDRFSGSKSGNTASLTISGLQAEDEADYYCASYRSSDQNIVFGGGTKLTVLGGGGSGGGGSGGGGSEVQLVESGGGLVQPGGSLRLSCAASGFTFSSYAMSWVRQAPGKGLEWVSTINSGTGSPYYADSVKGRFTISRDNSKNTLYLQMNSLRAEDTAVYYCAKNFFDGSWFLGPPAMDYWGQGTLVTVSSHHHHHH
notes: AS170036 VL1VH1 scFv mutein; also called AS170036 VL1VH1-VLH98Q
For B2, the Affinity increase in experiment [1] and in experiment [3] was 3.3 fold each time. Besides, the dissociation constant Kd in experiment [2] and in experiment [4] was 75 nM each time.

B3: LH98T (scFv)
scFv: QSALTQPRSVSGSPGQSVTISCAGTSSDVGSENYVSWYQQHPGKAPKLMIYQVNKRASGVPDRFSGSKSGNTASLTISGLQAEDEADYYCASYRSSDTNIVFGGGTKLTVLGGGGSGGGGSGGGGSEVQLVESGGGLVQPGGSLRLSCAASGFTFSSYAMSWVRQAPGKGLEWVSTINSGTGSPYYADSVKGRFTISRDNSKNTLYLQMNSLRAEDTAVYYCAKNFFDGSWFLGPPAMDYWGQGTLVTVSSHHHHHH
notes: AS170036 VL1VH1 scFv mutein; also called AS170036 VL1VH1-VLH98T
Consider B3, for which the Affinity increase in experiment [1] and in experiment [3] was 2.9 fold each time. The dissociation constant Kd in experiment [2] and in experiment [4] was 84 nM each time.

B4: LY34W (scFv)
scFv: QSALTQPRSVSGSPGQSVTISCAGTSSDVGSENWVSWYQQHPGKAPKLMIYQVNKRASGVPDRFSGSKSGNTASLTISGLQAEDEADYYCASYRSSDHNIVFGGGTKLTVLGGGGSGGGGSGGGGSEVQLVESGGGLVQPGGSLRLSCAASGFTFSSYAMSWVRQAPGKGLEWVSTINSGTGSPYYADSVKGRFTISRDNSKNTLYLQMNSLRAEDTAVYYCAKNFFDGSWFLGPPAMDYWGQGTLVTVSSHHHHHH
notes: AS170036 VL1VH1 scFv mutein
Turning to B4, the Affinity increase in experiment [1] and in experiment [3] was 0.6 fold each time. Moreover, the Kd in experiment [2] and in experiment [4] was 410 nM each time.

B5: LY93I (scFv)
scFv: QSALTQPRSVSGSPGQSVTISCAGTSSDVGSENYVSWYQQHPGKAPKLMIYQVNKRASGVPDRFSGSKSGNTASLTISGLQAEDEADYYCASIRSSDHNIVFGGGTKLTVLGGGGSGGGGSGGGGSEVQLVESGGGLVQPGGSLRLSCAASGFTFSSYAMSWVRQAPGKGLEWVSTINSGTGSPYYADSVKGRFTISRDNSKNTLYLQMNSLRAEDTAVYYCAKNFFDGSWFLGPPAMDYWGQGTLVTVSSHHHHHH
notes: AS170036 VL1VH1 scFv mutein
For the molecule B5, the Affinity increase in experiment [1] and in experiment [3] was 0.6 fold each time. Also, the Kd in experiment [2] and in experiment [4] was 440 nM in each case.

B6: LH98V (scFv)
scFv: QSALTQPRSVSGSPGQSVTISCAGTSSDVGSENYVSWYQQHPGKAPKLMIYQVNKRASGVPDRFSGSKSGNTASLTISGLQAEDEADYYCASYRSSDVNIVFGGGTKLTVLGGGGSGGGGSGGGGSEVQLVESGGGLVQPGGSLRLSCAASGFTFSSYAMSWVRQAPGKGLEWVSTINSGTGSPYYADSVKGRFTISRDNSKNTLYLQMNSLRAEDTAVYYCAKNFFDGSWFLGPPAMDYWGQGTLVTVSSHHHHHH
notes: AS170036 VL1VH1 scFv mutein; also called AS170036 VL1VH1-VLH98V
As to B6, the Affinity increase in experiment [1] and in experiment [3] was 3.2 fold each time. The equilibrium dissociation constant (Kd) in experiment [2] and in experiment [4] was 78 nM each time.

B7: LY34H (scFv)
scFv: QSALTQPRSVSGSPGQSVTISCAGTSSDVGSENHVSWYQQHPGKAPKLMIYQVNKRASGVPDRFSGSKSGNTASLTISGLQAEDEADYYCASYRSSDHNIVFGGGTKLTVLGGGGSGGGGSGGGGSEVQLVESGGGLVQPGGSLRLSCAASGFTFSSYAMSWVRQAPGKGLEWVSTINSGTGSPYYADSVKGRFTISRDNSKNTLYLQMNSLRAEDTAVYYCAKNFFDGSWFLGPPAMDYWGQGTLVTVSSHHHHHH
notes: AS170036 VL1VH1 scFv mutein
In the case of B7, the Affinity increase in experiment [1] and in experiment [3] was 0.5 fold each time. In addition, the dissociation constant Kd in experiment [2] and in experiment [4] was 540 nM in each case.

B8: LH98Y (scFv)
scFv: QSALTQPRSVSGSPGQSVTISCAGTSSDVGSENYVSWYQQHPGKAPKLMIYQVNKRASGVPDRFSGSKSGNTASLTISGLQAEDEADYYCASYRSSDYNIVFGGGTKLTVLGGGGSGGGGSGGGGSEVQLVESGGGLVQPGGSLRLSCAASGFTFSSYAMSWVRQAPGKGLEWVSTINSGTGSPYYADSVKGRFTISRDNSKNTLYLQMNSLRAEDTAVYYCAKNFFDGSWFLGPPAMDYWGQGTLVTVSSHHHHHH
notes: AS170036 VL1VH1 scFv mutein
For the molecule B8, the Affinity increase in experiment [1] and in experiment [3] was 1.6 fold throughout. In addition, the Kd in experiment [2] and in experiment [4] was 160 nM each time.

B9: LH98R (scFv)
scFv: QSALTQPRSVSGSPGQSVTISCAGTSSDVGSENYVSWYQQHPGKAPKLMIYQVNKRASGVPDRFSGSKSGNTASLTISGLQAEDEADYYCASYRSSDRNIVFGGGTKLTVLGGGGSGGGGSGGGGSEVQLVESGGGLVQPGGSLRLSCAASGFTFSSYAMSWVRQAPGKGLEWVSTINSGTGSPYYADSVKGRFTISRDNSKNTLYLQMNSLRAEDTAVYYCAKNFFDGSWFLGPPAMDYWGQGTLVTVSSHHHHHH
notes: AS170036 VL1VH1 scFv mutein
Take B9: the Affinity increase in experiment [1] and in experiment [3] was 1.1 fold throughout. Besides, the equilibrium dissociation constant (Kd) in experiment [2] and in experiment [4] was 220 nM each time.

B10: LY93F (scFv)
scFv: QSALTQPRSVSGSPGQSVTISCAGTSSDVGSENYVSWYQQHPGKAPKLMIYQVNKRASGVPDRFSGSKSGNTASLTISGLQAEDEADYYCASFRSSDHNIVFGGGTKLTVLGGGGSGGGGSGGGGSEVQLVESGGGLVQPGGSLRLSCAASGFTFSSYAMSWVRQAPGKGLEWVSTINSGTGSPYYADSVKGRFTISRDNSKNTLYLQMNSLRAEDTAVYYCAKNFFDGSWFLGPPAMDYWGQGTLVTVSSHHHHHH
notes: AS170036 VL1VH1 scFv mutein
Regarding B10, the Affinity increase in experiment [1] and in experiment [3] was 1.8 fold each time. Also, the dissociation constant (Kd) in experiment [2] and in experiment [4] was 140 nM in each case.

B11: LY93L (scFv)
scFv: QSALTQPRSVSGSPGQSVTISCAGTSSDVGSENYVSWYQQHPGKAPKLMIYQVNKRASGVPDRFSGSKSGNTASLTISGLQAEDEADYYCASLRSSDHNIVFGGGTKLTVLGGGGSGGGGSGGGGSEVQLVESGGGLVQPGGSLRLSCAASGFTFSSYAMSWVRQAPGKGLEWVSTINSGTGSPYYADSVKGRFTISRDNSKNTLYLQMNSLRAEDTAVYYCAKNFFDGSWFLGPPAMDYWGQGTLVTVSSHHHHHH
notes: AS170036 VL1VH1 scFv mutein
As to B11, the Affinity increase in experiment [1] and in experiment [3] was 1.3 fold each time. The Kd in experiment [2] and in experiment [4] was 180 nM each time.

B12: LH98S (scFv)
scFv: QSALTQPRSVSGSPGQSVTISCAGTSSDVGSENYVSWYQQHPGKAPKLMIYQVNKRASGVPDRFSGSKSGNTASLTISGLQAEDEADYYCASYRSSDSNIVFGGGTKLTVLGGGGSGGGGSGGGGSEVQLVESGGGLVQPGGSLRLSCAASGFTFSSYAMSWVRQAPGKGLEWVSTINSGTGSPYYADSVKGRFTISRDNSKNTLYLQMNSLRAEDTAVYYCAKNFFDGSWFLGPPAMDYWGQGTLVTVSSHHHHHH
notes: AS170036 VL1VH1 scFv mutein
For B12, the Affinity increase in experiment [1] and in experiment [3] was 1.4 fold throughout. For the same molecule, the equilibrium dissociation constant (Kd) in experiment [2] and in experiment [4] was 180 nM throughout.

B13: LY93Q (scFv)
scFv: QSALTQPRSVSGSPGQSVTISCAGTSSDVGSENYVSWYQQHPGKAPKLMIYQVNKRASGVPDRFSGSKSGNTASLTISGLQAEDEADYYCASQRSSDHNIVFGGGTKLTVLGGGGSGGGGSGGGGSEVQLVESGGGLVQPGGSLRLSCAASGFTFSSYAMSWVRQAPGKGLEWVSTINSGTGSPYYADSVKGRFTISRDNSKNTLYLQMNSLRAEDTAVYYCAKNFFDGSWFLGPPAMDYWGQGTLVTVSSHHHHHH
notes: AS170036 VL1VH1 scFv mutein
Turning to B13, the Affinity increase in experiment [1] and in experiment [3] was 0.6 fold throughout. Moreover, the Kd in experiment [2] and in experiment [4] was 380 nM throughout.

B14: LY93M (scFv)
scFv: QSALTQPRSVSGSPGQSVTISCAGTSSDVGSENYVSWYQQHPGKAPKLMIYQVNKRASGVPDRFSGSKSGNTASLTISGLQAEDEADYYCASMRSSDHNIVFGGGTKLTVLGGGGSGGGGSGGGGSEVQLVESGGGLVQPGGSLRLSCAASGFTFSSYAMSWVRQAPGKGLEWVSTINSGTGSPYYADSVKGRFTISRDNSKNTLYLQMNSLRAEDTAVYYCAKNFFDGSWFLGPPAMDYWGQGTLVTVSSHHHHHH
notes: AS170036 VL1VH1 scFv mutein
In the case of B14, the Affinity increase in experiment [1] and in experiment [3] was 1.1 fold each time. Also, the dissociation constant (Kd) in experiment [2] and in experiment [4] was 230 nM throughout.

B15: LH98W (scFv)
scFv: QSALTQPRSVSGSPGQSVTISCAGTSSDVGSENYVSWYQQHPGKAPKLMIYQVNKRASGVPDRFSGSKSGNTASLTISGLQAEDEADYYCASYRSSDWNIVFGGGTKLTVLGGGGSGGGGSGGGGSEVQLVESGGGLVQPGGSLRLSCAASGFTFSSYAMSWVRQAPGKGLEWVSTINSGTGSPYYADSVKGRFTISRDNSKNTLYLQMNSLRAEDTAVYYCAKNFFDGSWFLGPPAMDYWGQGTLVTVSSHHHHHH
notes: AS170036 VL1VH1 scFv mutein
Turning to B15, the Affinity increase in experiment [1] and in experiment [3] was 1.2 fold each time. The Kd in experiment [2] and in experiment [4] was 200 nM throughout.

Values taken from patent US20240279318A1 (NANJING LEGEND BIOTECH, published 2024).
